According to ChEMBL document CHEMBL2074046, “Selectivity of the polyspecific cation transporter rOCT1 is changed by mutation of aspartate 475 to glutamate” (Mol Pharmacol, 1999):

Columns and labels:
[1] = target: T1, Solute carrier family 22 member 1 (Rattus norvegicus, UniProt Q63089)
T1 sequence (Q63089 whole entry): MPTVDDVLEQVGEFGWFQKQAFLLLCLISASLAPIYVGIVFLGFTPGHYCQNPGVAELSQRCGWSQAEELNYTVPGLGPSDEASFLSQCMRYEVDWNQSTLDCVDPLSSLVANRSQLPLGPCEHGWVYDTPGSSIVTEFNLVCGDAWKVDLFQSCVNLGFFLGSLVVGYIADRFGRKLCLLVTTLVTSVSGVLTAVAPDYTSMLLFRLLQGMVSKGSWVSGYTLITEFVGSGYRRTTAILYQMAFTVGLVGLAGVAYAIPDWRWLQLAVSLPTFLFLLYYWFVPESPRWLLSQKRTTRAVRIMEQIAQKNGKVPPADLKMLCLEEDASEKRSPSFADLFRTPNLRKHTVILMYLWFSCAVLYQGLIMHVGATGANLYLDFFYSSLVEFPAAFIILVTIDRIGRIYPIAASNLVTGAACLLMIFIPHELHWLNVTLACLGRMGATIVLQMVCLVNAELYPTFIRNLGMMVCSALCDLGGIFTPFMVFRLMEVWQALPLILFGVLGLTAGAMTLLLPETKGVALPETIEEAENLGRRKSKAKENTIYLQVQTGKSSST

[2] = target: T1, Solute carrier family 22 member 1; assay: TP_TRANSPORTER: inhibition of MPP+ uptake (MPP+: 0.1 uM) in OCT1-expressing HEK293 cells; assay type: functional, cell-based
[3] = substrate: CNC(=O)c1cccnc1; assay: (§1) TP_TRANSPORTER: uptake in Xenopus laevis oocytes; assay type: functional, cell-based, Oocyte
[4] = substrate: C[n+]1ccc(-c2ccccc2)cc1; assay: as §1; assay type: functional, cell-based, Oocyte
[5] = substrate: CC[N+](CC)(CC)CC; assay: cells, lysate or membranes named
[6] = substrate: C[N+](C)(C)CCO; assay: cells, lysate or membranes named
[7] = substrate: C[n+]1ccc(-c2ccccc2)cc1; assay: TP_TRANSPORTER: uptake in OCT1-expressing HEK293 cells; assay type: functional, cell-based

`CCCC[N+](CCCC)(CCCC)CCCC` [TETRABUTHYLAMMONIUM] was tested, and the IC50 [1] was 3000 nM.

In the case of `CCCCC[N+](CCCCC)(CCCCC)CCCCC` [TETRAPENTYLAMMONIUM], the IC50 [2] is reported as 180 nM.

B1: Solute carrier family 22 member 1 (Rattus norvegicus) (protein)
chain: T1 sequence (Q63089 whole entry)
B1 gave a Km [3] of 126 µM, a Km [4] of 2.7 µM and a Km [5] of 129 µM. For the same molecule, the Km [6] was 370 µM and the Km [7] was 9.4 µM.
